Patent publication US20180282719A1 (published 2018)

T1: recombinant soluble human IL-6 receptor (SR344) (human, UniProt P08887 20-344, biotinylated (sites not given) where immobilized via streptavidin or used in phage ELISA)
T1 construct: also called soluble IL-6 receptor; membrane-type IL-6 receptor (when biotinylated and immobilized on the chip)
T1 sequence (looked up): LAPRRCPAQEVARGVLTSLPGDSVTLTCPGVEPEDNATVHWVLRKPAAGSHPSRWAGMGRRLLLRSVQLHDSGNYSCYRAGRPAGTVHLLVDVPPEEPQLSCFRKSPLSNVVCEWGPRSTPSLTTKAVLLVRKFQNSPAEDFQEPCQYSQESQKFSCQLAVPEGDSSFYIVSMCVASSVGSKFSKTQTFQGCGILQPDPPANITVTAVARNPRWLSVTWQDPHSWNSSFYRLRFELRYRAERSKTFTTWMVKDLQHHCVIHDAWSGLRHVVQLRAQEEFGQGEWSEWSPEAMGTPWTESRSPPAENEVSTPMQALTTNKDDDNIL


Tests used:
[1] = biological target: T1, recombinant soluble human IL-6 receptor …; assay: SPR Biacore T100, antibody on protein A/G chip, SR344 analyte, pH 7.4, 37 C
Description: Kinetic analysis of antigen-antibody reactions at pH 7.4 and pH 5.8 was carried out using a Biacore T100™ surface plasmon resonance system (GE Healthcare) for the four types of antibodies prepared: WT-IgG1, H54/L28-IgG1, H170/L82-IgG1, and Fv4-IgG1 (buffer: 10 mM MES (pH 7.4 or pH 5.8), 150 mM NaCl, 0.05% Surfactant P20 (polyoxyethelene sorbitan monolaurate)). The antibodies were bound to a sensor chip on which recomb-protein A/G (Pierce) was immobilized by amine coupling, and SR344 adjusted to an appropriate concentration was injected therein as an analyte. The association with and dissociation from SR344 of each type of antibody were observed on a real-time basis. All the measurements were carried out at 37° C. Association rate constants kₐ (1/Ms) and dissociation rate constants kd (1/s) were calculated using Biacore T100™ Evaluation Software (GE Healthcare), and dissociation constants KD (M) were calculated based on those values (Table 17).

[2] = biological target: T1, recombinant soluble human IL-6 receptor …; assay: SPR Biacore T100, antibody captured by anti-IgG gamma chain F(ab)2, SR344 analyte, pH 7.4, 37 C
Description: Kinetic analyses of antigen-antibody reactions at pH 7.4 were carried out on the four types of antibodies, i.e., the humanized PM1 antibody (wild type: WT), and […], H3pI/L73-IgG1, Fv2-IgG1, and Fv4-IgG1 constructed in Examples 2 and 10, by using a Biacore T100™ surface plasmon resonance system (GE Healthcare) (buffer: 10 mM MES (pH 7.4), 150 mM NaCl, 0.05% TWEEN® 20 (polyoxyethelene sorbitan monolaurate)). Each antibody was bound on a sensor chip on which an anti-IgG γ chain specific F(ab)₂ (Pierce) was immobilized by amine coupling, and then, SR344 adjusted to a concentration of 9.8 to 40 nM was injected thereto as an analyte. The association to and dissociation from SR344 were observed on a real-time basis for the pH-dependent-binding clones. All the measurements were carried out at 37° C. Association rate constants kₐ (1/Ms) and dissociation rate constants kd (1/s) were calculated using Biacore T100™ Evaluation Software (GE Healthcare), and dissociation constants KD (M) were calculated on the basis of those values (Table 7).

[3] = biological target: T1, recombinant soluble human IL-6 receptor …; assay: as above; remark: listed apart in the source
Procedure, shortened: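 Antibodies were captured on an anti-IgG γ-chain F(ab)₂ chip, with SR344 at 9.8–40 nM injected in 10 mM MES pH 7.4, 150 mM NaCl, 0.05% Tween 20, at 37° C. Real-time association/dissociation gave ka and kd, from which KD was calculated.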

[4] = biological target: T1, recombinant soluble human IL-6 receptor …; assay: SPR Biacore T100, biotinylated SR344 on streptavidin chip (model of membrane-type IL-6 receptor), antibody as analyte, bound at pH 7.4, dissociation at pH 5.8, 37 C
[5] = biological target: T1, recombinant soluble human IL-6 receptor …; assay: SPR Biacore T100, biotinylated SR344 on streptavidin chip (model of membrane-type IL-6 receptor), antibody 0.25 ug/mL as analyte, bound at pH 7.4, dissociation at pH 5.8, 37 C
Description: Binding to the membrane-type IL-6 receptor was evaluated by evaluating binding to the IL-6 receptor immobilized on a sensor chip. SR344 was biotinylated in accordance with a method known among persons with ordinary skill in the art, and the biotinylated SR344 was immobilized on the sensor chip via streptavidin using the affinity between streptavidin and biotin. All the measurements were carried out at 37° C. The mobile phase buffer was 10 mM MES (pH 5.8), 150 mM NaCl and 0.05% TWEEN® 20 (polyoxyethelene sorbitan monolaurate).
The pH-dependently-binding clones were injected under the condition of pH 7.4 to allow them to bind to SR344, and then, the pH-dependent dissociation of each clone at the pH of the mobile phase, pH 5.8, was observed. The results are shown in FIG. 21 (results for Fv1-M71, Fv1-M73, Fv3-M71, and Fv3-M73 are shown in FIG. 21, while results for other clones are shown in FIGS. 17 and 19). Analyses were carried out in the same manner as in Example 10 and the pH dependencies of the dissociation rate constants of all of the eleven types of clones are shown in Table 12.

Kd [1] [nM] | koff [1] [s⁻¹] | kon [1] [M⁻¹ s⁻¹] | Kd [2] [nM] | koff [2] [s⁻¹] | kon [2] [M⁻¹ s⁻¹] | Kd [3] [nM] | koff [3] [s⁻¹] | kon [3] [M⁻¹ s⁻¹] | koff [4] [s⁻¹] | koff [5] [s⁻¹] | Binder
0.97 | 0.00095 | 980000 | 1.4 | 0.001 | 720000 | 1.4 | 0.001 | 720000 | 0.0026 | 0.0026 | Fv4-IgG1 (antibody, VH3-IgG1 / VL3-CK) heavy: not shown light: DIQMTQSPSSLSASVGDSVTITCQASTDISSHLNWYQQKPGKAPELLIYYGSHLLSGVPSRFSGSGSGTDFTFTISSLEAEDAATYYCGQGNRLPYTFGQGTKVEIERTVAAPSVFIFPPSDEQLKSGTASVVCLLNNFYPREAKVQWKVDNALQSGNSQESVTEQDSKDSTYSLSSTLTLSKADYEKHKVYACEVTHQGLSSPVTKSFNRGEC
 |  |  | 1.4 | 0.00059 | 410000 | 1.4 | 0.00059 | 410000 | 0.00067 | 0.00067 | H3pI/L73 (antibody, IgG1, V domains shown, tested as IgG1; also called H3pI/L73-IgG1; H3pl/L73) VH: QVQLQESGPGLVKPSETLSLTCAVSGHSISHDHAHSWVRQPPGEGLEWIGYISYSGITNYNPSLKGRVTISRDTSKNQFSLKLSSVTAADTAAYYCARSLARTTAMDYWGEGTLVTVSS VL: DIQMTQSPSSLSASVGDSVTITCQASQHISSHLNWYQQKPGKAPELLIYYGSHLHSGVPSRFSGSGSGTDFTFTISSLEAEDAATYYCGQGNRLPYTFGQGTKVEIE
1.6 | 0.0011 | 670000 |  |  |  |  |  |  |  |  | H170/L82 (antibody, IgG1, V domains shown, expressed and purified as IgG (IgG1); also called H170/L82-IgG1) VH: QVQLQESGPGLVKPSETLSLTCAVSGHSISHHHAHSWVRQPPGEGLEWIGYISYSGITHYNPHLKGRVTISRDTSKNQFSLKLSSVTAADTAAYYCARVLARITAMDHWGEGTLVTVSS VL: DIQMTQSPSSLSASVGDSVTITCQASQDISSHLNWYQQKPGKAPELLIYYGSHLHSGVPSRFSGSGSGTDFTFTISSLEAEDAATYYCGQGNRLPYTFGQGTKVEIE
1.9 | 0.00094 | 490000 | 2.7 | 0.0011 | 400000 | 2.7 | 0.0011 | 400000 | 0.00025 | 0.00025 | humanized PM1 antibody (wild type, WT) (antibody, human IgG1, kappa, V domains shown, IgG1; also called WT-IgG1; wild type humanized anti-IL-6 receptor antibody) VH: QVQLQESGPGLVRPSQTLSLTCTVSGYSITSDHAWSWVRQPPGRGLEWIGYISYSGITTYNPSLKSRVTMLRDTSKNQFSLRLSSVTAADTAVYYCARSLARTTAMDYWGQGSLVTVSS VL: DIQMTQSPSSLSASVGDRVTITCRASQDISSYLNWYQQKPGKAPKLLIYYTSRLHSGVPSRFSGSGSGTDFTFTISSLQPEDIATYYCQQGNTLPYTFGQGTKVEIKR
